One substance from PMC3173086 can be followed below.

The test concerns the target MppA (murein tripeptide-binding protein of E. coli), His tag cleaved (E. coli K-12) (UniProt P77348). Description: other fluorescence titration.
Sequence of UniProt P77348 (P77348 23-537, tags left off): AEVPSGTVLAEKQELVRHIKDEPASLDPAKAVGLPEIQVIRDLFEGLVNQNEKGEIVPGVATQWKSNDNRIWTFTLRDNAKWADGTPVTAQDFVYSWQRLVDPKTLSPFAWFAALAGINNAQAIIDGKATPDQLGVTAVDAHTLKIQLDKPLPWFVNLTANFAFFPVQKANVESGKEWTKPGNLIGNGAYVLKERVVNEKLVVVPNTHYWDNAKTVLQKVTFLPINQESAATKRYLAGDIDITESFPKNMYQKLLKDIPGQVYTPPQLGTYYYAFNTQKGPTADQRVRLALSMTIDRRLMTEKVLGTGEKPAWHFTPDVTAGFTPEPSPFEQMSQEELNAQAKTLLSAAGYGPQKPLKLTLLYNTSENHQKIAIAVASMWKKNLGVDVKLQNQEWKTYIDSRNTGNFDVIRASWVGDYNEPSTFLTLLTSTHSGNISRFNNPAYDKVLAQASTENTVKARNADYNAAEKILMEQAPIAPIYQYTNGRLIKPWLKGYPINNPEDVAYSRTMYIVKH

For L-Ala-γ-D-Glu-L-Lys (peptide), the Kd is 130 µM.

By Kd is commonly meant a measure of binding affinity in units of concentration.
